Values quoted from earlier work in publication PMC6787260.
Read-outs that look alike come from different tables or passages of the source.

What was measured:
PDK1 (Homo sapiens) [1] = biological target: PDK1 (Homo sapiens) (UniProt O15530); assay: time resolved-FRET
PDK1 (Homo sapiens) [2] = biological target: PDK1 (Homo sapiens) (UniProt O15530); assay: time resolved-FRET; remark: listed apart in the source

Substance: PDK1 (from UniProt O15530)
- Kd (PDK1 (Homo sapiens) [1]): 11 µM
- Kd (PDK1 (Homo sapiens) [2]): 49 µM
